# T1: TLR8 WT (hTLR8) (human, UniProt Q9NR97 27-827)
# T1 sequence: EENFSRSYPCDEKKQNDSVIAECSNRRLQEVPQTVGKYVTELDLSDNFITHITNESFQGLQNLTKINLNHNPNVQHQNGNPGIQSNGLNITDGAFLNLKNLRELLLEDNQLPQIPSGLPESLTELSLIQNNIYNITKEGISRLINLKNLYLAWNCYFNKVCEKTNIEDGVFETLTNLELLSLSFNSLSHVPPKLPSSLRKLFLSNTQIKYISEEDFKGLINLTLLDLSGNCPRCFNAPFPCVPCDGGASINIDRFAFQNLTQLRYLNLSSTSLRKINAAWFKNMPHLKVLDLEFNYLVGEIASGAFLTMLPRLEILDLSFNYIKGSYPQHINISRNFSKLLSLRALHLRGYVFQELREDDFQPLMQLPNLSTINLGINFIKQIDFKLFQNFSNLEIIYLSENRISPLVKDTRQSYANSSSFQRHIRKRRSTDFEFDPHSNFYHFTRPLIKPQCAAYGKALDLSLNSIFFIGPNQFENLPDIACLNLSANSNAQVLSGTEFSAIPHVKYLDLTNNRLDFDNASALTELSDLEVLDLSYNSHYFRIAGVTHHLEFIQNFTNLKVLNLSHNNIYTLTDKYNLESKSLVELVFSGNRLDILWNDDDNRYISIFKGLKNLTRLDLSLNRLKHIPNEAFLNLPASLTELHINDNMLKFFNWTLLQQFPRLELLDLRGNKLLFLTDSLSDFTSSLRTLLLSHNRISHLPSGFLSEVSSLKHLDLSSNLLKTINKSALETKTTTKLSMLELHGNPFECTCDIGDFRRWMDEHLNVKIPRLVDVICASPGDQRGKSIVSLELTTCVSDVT
# T2: TLR7 WT (mmTLR7) (Macaca mulatta, UniProt B3Y653 27-839)
# T2 sequence: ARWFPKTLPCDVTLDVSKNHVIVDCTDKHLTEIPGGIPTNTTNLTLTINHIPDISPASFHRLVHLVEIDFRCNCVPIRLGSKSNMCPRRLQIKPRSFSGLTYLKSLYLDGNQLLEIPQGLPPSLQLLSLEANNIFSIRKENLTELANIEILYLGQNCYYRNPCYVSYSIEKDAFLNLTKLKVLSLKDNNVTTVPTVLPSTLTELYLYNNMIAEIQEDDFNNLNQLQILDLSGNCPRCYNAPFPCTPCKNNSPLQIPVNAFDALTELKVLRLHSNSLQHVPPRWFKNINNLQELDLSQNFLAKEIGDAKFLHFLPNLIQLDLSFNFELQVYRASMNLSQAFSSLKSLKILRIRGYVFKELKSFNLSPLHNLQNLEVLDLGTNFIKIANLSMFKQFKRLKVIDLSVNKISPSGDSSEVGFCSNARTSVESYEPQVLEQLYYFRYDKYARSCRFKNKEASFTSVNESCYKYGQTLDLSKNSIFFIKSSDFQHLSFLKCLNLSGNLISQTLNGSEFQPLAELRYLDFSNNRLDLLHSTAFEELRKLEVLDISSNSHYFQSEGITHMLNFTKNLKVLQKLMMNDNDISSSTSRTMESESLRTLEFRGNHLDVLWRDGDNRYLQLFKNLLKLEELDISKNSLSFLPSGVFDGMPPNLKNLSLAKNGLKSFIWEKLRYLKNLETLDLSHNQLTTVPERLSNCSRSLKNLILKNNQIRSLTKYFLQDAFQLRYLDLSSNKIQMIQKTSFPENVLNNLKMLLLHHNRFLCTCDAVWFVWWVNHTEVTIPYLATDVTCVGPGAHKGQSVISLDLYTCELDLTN
# T3: TLR8 F495S (human, UniProt Q9NR97 27-827, F495S)
# T3 sequence: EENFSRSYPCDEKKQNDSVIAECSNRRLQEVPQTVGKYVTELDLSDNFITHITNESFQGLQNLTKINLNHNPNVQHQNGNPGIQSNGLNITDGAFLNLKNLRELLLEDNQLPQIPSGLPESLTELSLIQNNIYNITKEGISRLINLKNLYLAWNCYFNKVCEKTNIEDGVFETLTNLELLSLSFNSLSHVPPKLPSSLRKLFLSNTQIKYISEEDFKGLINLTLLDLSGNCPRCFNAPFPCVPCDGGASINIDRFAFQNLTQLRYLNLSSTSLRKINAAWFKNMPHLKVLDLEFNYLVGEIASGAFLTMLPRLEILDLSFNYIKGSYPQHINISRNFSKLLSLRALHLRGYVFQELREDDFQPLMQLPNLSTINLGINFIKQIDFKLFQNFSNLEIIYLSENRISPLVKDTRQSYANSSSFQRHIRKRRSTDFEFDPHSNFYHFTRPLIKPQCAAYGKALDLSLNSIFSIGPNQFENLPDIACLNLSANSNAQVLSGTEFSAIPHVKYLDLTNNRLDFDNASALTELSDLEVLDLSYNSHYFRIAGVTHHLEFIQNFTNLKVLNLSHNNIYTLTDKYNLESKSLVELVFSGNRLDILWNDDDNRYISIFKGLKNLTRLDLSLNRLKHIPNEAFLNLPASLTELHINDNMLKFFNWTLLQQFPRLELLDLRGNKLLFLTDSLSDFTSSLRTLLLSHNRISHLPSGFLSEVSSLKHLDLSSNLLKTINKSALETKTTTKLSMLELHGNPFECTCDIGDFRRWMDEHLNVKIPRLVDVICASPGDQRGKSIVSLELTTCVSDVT
# T4: TLR8 I403S (human, UniProt Q9NR97 27-827, I403S)
# T4 sequence: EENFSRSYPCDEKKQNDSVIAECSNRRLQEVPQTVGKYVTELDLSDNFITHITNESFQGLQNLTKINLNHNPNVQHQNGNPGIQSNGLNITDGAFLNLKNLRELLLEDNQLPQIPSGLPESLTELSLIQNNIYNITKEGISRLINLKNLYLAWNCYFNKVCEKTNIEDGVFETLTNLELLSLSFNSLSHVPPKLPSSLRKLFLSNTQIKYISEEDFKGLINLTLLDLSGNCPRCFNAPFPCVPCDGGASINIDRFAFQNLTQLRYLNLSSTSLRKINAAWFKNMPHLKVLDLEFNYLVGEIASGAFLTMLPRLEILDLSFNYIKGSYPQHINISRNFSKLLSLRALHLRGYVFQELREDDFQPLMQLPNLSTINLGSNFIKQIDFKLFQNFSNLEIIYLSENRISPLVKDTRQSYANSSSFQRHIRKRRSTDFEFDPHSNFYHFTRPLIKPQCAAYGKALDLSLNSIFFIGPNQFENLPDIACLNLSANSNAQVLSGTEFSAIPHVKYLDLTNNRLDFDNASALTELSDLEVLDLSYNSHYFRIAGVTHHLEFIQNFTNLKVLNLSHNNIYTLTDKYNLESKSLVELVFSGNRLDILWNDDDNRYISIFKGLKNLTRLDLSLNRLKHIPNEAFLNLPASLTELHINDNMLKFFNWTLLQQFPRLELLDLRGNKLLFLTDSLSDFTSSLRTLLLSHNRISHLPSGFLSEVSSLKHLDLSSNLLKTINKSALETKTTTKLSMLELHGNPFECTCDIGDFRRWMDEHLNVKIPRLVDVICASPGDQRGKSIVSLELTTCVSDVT
# Tests used:
# [1] = target: Macaca mulatta TLR7 (mmTLR7) ectodomain (Macaca mulatta); test: cryo-EM structure; TLR7 in complex with mGrUrC^PO; resolution 2.9 Å
# [2] = target: Macaca mulatta TLR7 (mmTLR7) ectodomain (Macaca mulatta); test: cryo-EM structure; TLR7 in complex with mGrArA^PS (mixture of four PS stereoisomers); resolution 2.7 Å
# [3] = target: Macaca mulatta TLR7 (mmTLR7) ectodomain (Macaca mulatta); test: cryo-EM structure; mmTLR7 ectodomain in the presence of GUC-v1^PS (mGmUdC^PS, mixture of RR, RS, SR and SS configurations); overall resolution 3.0 Å
# TLR8 WT (hTLR8) [4] = target: T1, TLR8 WT (hTLR8); test: SPR; negligible binding; SPR with recombinant TLR7/TLR8; buffer, pH and temperature not in the material; conditions: protein: recombinant; chain copies: 2; single-stranded
# TLR7 WT (mmTLR7) [5] = target: T2, TLR7 WT (mmTLR7); test: as above; conditions: protein: recombinant; chain copies: 2; single-stranded
# TLR8 WT (hTLR8) [6] = target: T1, TLR8 WT (hTLR8); test: SPR; average; runs 5±1, 7±1, 5±1, 12±3, 7±1, 11±2; SPR with recombinant TLR7/TLR8; buffer, pH and temperature not in the material; conditions: protein: recombinant; chain copies: 2; single-stranded
# TLR7 WT (mmTLR7) [7] = target: T2, TLR7 WT (mmTLR7); test: cryo-EM; stereoisomer mixture, modeled as SS; 2.7 A; buffer, pH and temperature not in the material; conditions: protein: recombinant; chain copies: 2; single-stranded
# TLR8 F495S = target: T3, TLR8 F495S; test: SPR; no binding observed; SPR with recombinant TLR7/TLR8; buffer, pH and temperature not in the material; conditions: protein: recombinant; chain copies: 2; single-stranded
# TLR8 WT (hTLR8) [8] = target: T1, TLR8 WT (hTLR8); test: SPR; mean computed from runs 1.8±0.2, 1.8±0.2, 1.5±0.2; SPR with recombinant TLR7/TLR8; buffer, pH and temperature not in the material; conditions: protein: recombinant; chain copies: 2; single-stranded
# TLR8 I403S = target: T4, TLR8 I403S; test: SPR; mean computed from runs 7.6±0.5, 9.7±0.9, 7.5±0.3; SPR with recombinant TLR7/TLR8; buffer, pH and temperature not in the material; conditions: protein: recombinant; chain copies: 2; single-stranded
# TLR8 WT (hTLR8) [9] = target: T1, TLR8 WT (hTLR8); test: SPR; control of the nucleoside series; mean computed from runs 1.4±0.9, 1.5±0.09, 1.6±0.1; SPR with recombinant TLR7/TLR8; buffer, pH and temperature not in the material; conditions: protein: recombinant; chain copies: 2; single-stranded
# TLR8 WT (hTLR8) [10] = target: T1, TLR8 WT (hTLR8); test: SPR; average; runs 3±1, 4±1, 5±1, 3±0.4, 4±1, 4±1; SPR with recombinant TLR7/TLR8; buffer, pH and temperature not in the material; conditions: protein: recombinant; chain copies: 2; single-stranded
# TLR7 WT (mmTLR7) [11] = target: T2, TLR7 WT (mmTLR7); test: SPR; average stated in text; table runs 38±2, 32±2, 30±1, 20±11, 11±1 (mean 26.2); SPR with recombinant TLR7/TLR8; buffer, pH and temperature not in the material; conditions: protein: recombinant; chain copies: 2; single-stranded
# TLR8 WT (hTLR8) [12] = target: T1, TLR8 WT (hTLR8); test: SPR; not detected; SPR with recombinant TLR7/TLR8; buffer, pH and temperature not in the material; conditions: protein: recombinant; chain copies: 2; single-stranded
# TLR7 WT (mmTLR7) [13] = target: T2, TLR7 WT (mmTLR7); test: SPR; average; runs 7±2, 7±1, 6±1, 4±2, 4±2; SPR with recombinant TLR7/TLR8; buffer, pH and temperature not in the material; conditions: protein: recombinant; chain copies: 2; single-stranded
molecule,measurement,setting,value
Macaca mulatta TLR7 (mmTLR7) ectodomain (receptor),stoichiometry N,[1],2
same,stoichiometry N,[2],2
same,stoichiometry N,[3],2
"GTC (XNA, DNA G1, DNA T2, 2'-OMe C3; phosphorothioate linkages, stereo-random) [GUC-v6 PS (dGdTmC)]",binding result,TLR8 WT (hTLR8) [4],no binding
same,binding result,TLR7 WT (mmTLR7) [5],no binding
"GCC (XNA, 2'-OMe G1, DNA C2, DNA C3; phosphorothioate linkages, stereo-random) [GCC-v4 PS (mGdCdC)]",binding result,TLR7 WT (mmTLR7) [5],no binding
same,Kd,TLR8 WT (hTLR8) [6],8 µM
"GAA (XNA, 2'-OMe G1, RNA A2 A3; phosphorothioate linkages, stereo-random) [mGrArA PS]",binding result,TLR7 WT (mmTLR7) [7],binds
same,binding result,TLR8 F495S,no binding
same,Kd,TLR8 WT (hTLR8) [8],1.7 µM
same,Kd,TLR8 I403S,8.27 µM
same,Kd,TLR8 WT (hTLR8) [9],1.5 µM
"GAG (XNA, 2'-OMe G1, 2'-OMe A2, DNA G3; phosphorothioate linkages, stereo-random) [GAG-v1 PS (mGmAdG)]",Kd,TLR8 WT (hTLR8) [10],4 µM
same,Kd,TLR7 WT (mmTLR7) [11],20.2 µM
"GUC (XNA, 2'-OMe G1, 2'-OMe U2, DNA C3; phosphorothioate linkages, stereo-random) [GUC-v1 PS (mGmUdC)]",binding result,TLR8 WT (hTLR8) [12],no binding
same,Kd,TLR7 WT (mmTLR7) [13],5.6 µM

# Reference: paper PMC13043311, “2′-O-Methyl-guanosine RNA fragments antagonize TLR7 and TLR8 to limit autoimmunity”
